Literature values as cited in article PMC3113683 (Biochemistry, 2009).

Key:
[1] = test system: T cell receptor (TCR) signaling; details: cited from earlier work
LYP = details: ref [7], [18]; cited from earlier work
PEP = details: immunoprecipitated full-length PEP vs amino acids 1−290; ref [5]; cited from earlier work

Row | Molecule | Effect of variant on signaling ([1]; ref [7], [18]) | Phosphatase activity of variant (LYP) | Catalytic activity vs catalytic domain alone (PEP) | Inhibition of T cell receptor signaling ([1]; T cells, ref [4]-[8])
1 | LYP-W620: genetic variant of LYP carrying Trp620 instead of Arg620 in the C-terminal domain (protein, UniProt Q9Y2R2 1-807, looked up, variant R620W) Tyrosine-protein phosphatase …: MDQREILQKFLDEAQSKKITKEEFANEFLKLKRQSTKYKADKTYPTTVAEKPKNIKKNRYKDILPYDYSRVELSLITSDEDSSYINANFIKGVYGPKAYIATQGPLSTTLLDFWRMIWEYSVLIIVMACMEYEMGKKKCERYWAEPGEMQLEFGPFSVSCEAEKRKSDYIIRTLKVKFNSETRTIYQFHYKNWPDHDVPSSIDPILELIWDVRCYQEDDSVPICIHCSAGCGRTGVICAIDYTWMLLKDGIIPENFSVFSLIREMRTQRPSLVQTQEQYELVYNAVLELFKRQMDVIRDKHSGTESQAKHCIPEKNHTLQADSYSPNLPKSTTKAAKMMNQQRTKMEIKESSSFDFRTSEISAKEELVLHPAKSSTSFDFLELNYSFDKNADTTMKWQTKAFPIVGEPLQKHQSLDLGSLLFEGCSNSKPVNAAGRYFNSKVPITRTKSTPFELIQQRETKEVDSKENFSYLESQPHDSCFVEMQAQKVMHVSSAELNYSLPYDSKHQIRNASNVKHHDSSALGVYSYIPLVENPYFSSWPPSGTSSKMSLDLPEKQDGTVFPSSLLPTSSTSLFSYYNSHDSLSLNSPTNISSLLNQESAVLATAPRIDDEIPPPLPVWTPESFIVVEEAGEFSPNVPKSLSSAVKVKIGTSLEWGGTSEPKKFDDSVILRPSKSVKLRSPKSELHQDRSSPPPPLPERTLESFFLADEDCMQAQSIETYSTSYPDTMENSTSSKQTLKTPGKSFTRSKSLKILRNMKKSICNSCPPNKPAESVQSNNSSSFLNFGFANRFSKPKGPRNPPPTWNI | gain-of-function inhibitor of signaling | increased phosphatase activity | – | –
2 | PEP: mouse homologue of LYP called PEST-enriched phosphatase (protein, UniProt P29352 1-802, looked up) Tyrosine-protein phosphatase …: MDQREILQQLLKEAQKKKLNSEEFASEFLKLKRQSTKYKADKIYPTTVAQRPKNIKKNRYKDILPYDHSLVELSLLTSDEDSSYINASFIKGVYGPKAYIATQGPLSTTLLDFWRMIWEYRILVIVMACMEFEMGKKKCERYWAEPGETQLQFGPFSISCEAEKKKSDYKIRTLKAKFNNETRIIYQFHYKNWPDHDVPSSIDPILQLIWDMRCYQEDDCVPICIHCSAGCGRTGVICAVDYTWMLLKDGIIPKNFSVFNLIQEMRTQRPSLVQTQEQYELVYSAVLELFKRHMDVISDNHLGREIQAQCSIPEQSLTVEADSCPLDLPKNAMRDVKTTNQHSKQGAEAESTGGSSLGLRTSTMNAEEELVLHSAKSSPSFNCLELNCGCNNKAVITRNGQARASPVVGEPLQKYQSLDFGSMLFGSCPSALPINTADRYHNSKGPVKRTKSTPFELIQQRKTNDLAVGDGFSCLESQLHEHYSLRELQVQRVAHVSSEELNYSLPGACDASCVPRHSPGALRVHLYTSLAEDPYFSSSPPNSADSKMSFDLPEKQDGATSPGALLPASSTTSFFYSNPHDSLVMNTLTSFSPPLNQETAVEAPSRRTDDEIPPPLPERTPESFIVVEEAGEPSPRVTESLPLVVTFGASPECSGTSEMKSHDSVGFTPSKNVKLRSPKSDRHQDGSPPPPLPERTLESFFLADEDCIQAQAVQTSSTSYPETTENSTSSKQTLRTPGKSFTRSKSLKIFRNMKKSVCNSSSPSKPTERVQPKNSSSFLNFGFGNRFSKPKGPRNPPSAWNM | – | – | much lower than the activity of the catalytic domain alone | potently inhibit T cell receptor (TCR) signaling
